Assay [1] concerns the target bipartite NLS (bpNLS) from the nucleoplasmin. As to the kind of experiment: native MS.
Assay [2] addresses eVP24–KPNA5-ΔIBB complex (human | Ebola virus) (UniProt Q05322). As to the kind of experiment: native MS.
Assay [3] has as its target bipartite NLS (bpNLS) from the nucleoplasmin. As to the kind of experiment: fluorescence polarisation.
Assay [4] deals with monopartite NLS peptide (mpNLS) from the SV40 large T antigen (SV40). As to the kind of experiment: fluorescence polarisation.

Regarding “eVP24–KPNA5-ΔIBB complex (from UniProt Q05322 11-237)”, the stoichiometry N in assay [1] was found to be 1; in assay [2], 2. Moreover, the figures for the Kd in assay [3] and in assay [4] were 210 nM and 5200 nM, respectively.

The values above are taken from publication PMC12390655 (Viruses, 2025).
